One test concerns the target endophilin SH3 (SH3G2_HUMAN), Q99962. The test can be described thus: SPOT array.
In turn, ETSMLKRPVLLHLH [Q9UHE8 34-47] returned a normalised SPOT signal, Boehringer light units (BLU); mean over the file's lines of this peptide of 440.
EPEEPKRPVPAERG [Q16584 619-632]: the normalised SPOT signal, Boehringer light units (BLU); mean over the file's lines of this peptide came out at 40.1.
Still for that read-out and setting: then ESPPPKRPRIAYLS [P36508 395-408], with 332; and EPPPPQKPPPPNSK [Q03111 455-469], with 2240.
Still for that read-out and setting: then ENDNIERPVRRRHS [Q9NR92 11-24], with 59.3; and EREFLERPSRDHLY [Q12968 137-150], with 108; and EQPPPGRPPLRLED [Q9Y334 62-76], with 92.4.
Same read-out and setting: then ESRDITRPSRPADL [Q9Y6Z1 10-23], with 134.
As for EQGGLLRPERDHVE [Q9ULV5 88-101], the normalised SPOT signal, Boehringer light units (BLU); mean over the file's lines of this peptide stood at 66.9.
For the molecule EQRPLKRPRLGPPD [Q96PC8 10-23], the normalised SPOT signal, Boehringer light units (BLU); mean over the file's lines of this peptide was 446.
AGPRPRRPGSLPGW [Q14333 377-390] gave a normalised SPOT signal, Boehringer light units (BLU); mean over the file's lines of this peptide of 805.
EQGSLKRPVSRKVG [O15021 1020-1033] came in with a normalised SPOT signal, Boehringer light units (BLU); mean over the file's lines of this peptide of 86.4.
The molecule ESQSPKRPPEDFET [Q16632 163-177] showed a normalised SPOT signal, Boehringer light units (BLU); mean over the file's lines of this peptide of 49.5.
Still for that read-out and setting: then ESPLPRRPPRAARS [P81408 388-402], with 8150; and ESSGPPRPSRGPAA [Q9UHD9 6-19], with 295.
Molecule EQFKIKRPAAWVDL [O43301 404-417] displayed a normalised SPOT signal, Boehringer light units (BLU); mean over the file's lines of this peptide of 0.
The molecule ETSMLKRPVLLHLQ [Q9Y6U5 44-57] showed a normalised SPOT signal, Boehringer light units (BLU); mean over the file's lines of this peptide of 182.
Same read-out and setting: then EQKRPLRPRRKGRK [Q9P2K1 987-1000], with 1010.
Still for that read-out and setting: then ERDFLKRPLESYVK [Q10472 159-172], with 4.5; and AGPRLPRPPREGST [Q9H224 58-71], with 1130; and ETNIPQRPSRPARR [Q9HBL3 239-252], with 1800.
The same measure, in the same setting: then ESRDITRPSRPASY [O60298 756-769], with 192; and EPGLPVRPPGGGQS [O95954 457-471], with 59.4; and EQYIPSRPLKTQEL [Q9Y259 145-158], with 159.
Regarding AGSDPKRPEMPSKK [P23470 686-699], the normalised SPOT signal, Boehringer light units (BLU); mean over the file's lines of this peptide was determined as 66.5.
Same read-out and setting: then AGSSPGKPPRLVGG [P01034 24-38], with 102; and ESSRPVKPPKKDVP [O60885 322-336], with 96.9; and EPPAPRRPASLAQR [Q9NP57 254-267], with 831.
On the same count and under the same terms, then ENESPLKPPGISMD [Q92610 35-49], with 22.2; and ETLTFKRPEGMHRE [Q9NPF5 43-56], with 0; and ETMYLRRPEGIERQ [Q9H5V9 75-88], with 128.
Same read-out and setting: then EREALKRPMGPVHY [Q9P0R4 128-141], with 50.5; and EQVDLIRPWRRLLE [Q9NU22 852-865], with 147; and ETGALRRPQLLPLL [O60896 2-15], with 127.
As to ETSGPERPPEKPRK [O75408 12-26], the normalised SPOT signal, Boehringer light units (BLU); mean over the file's lines of this peptide worked out at 926.
Consider ETISPLRPQRPKSQ [Q14185 1731-1744], for which the normalised SPOT signal, Boehringer light units (BLU); mean over the file's lines of this peptide was 220.
Still for that read-out and setting: then ERPPPFKPPPPPIK [P40200 535-549], with 2690; and ESGRPIKPPRKDLP [P25440 318-332], with 1950.

Another test addresses T1, amphyphisin SH3 (AMPH_HUMAN), P49418.
T1 chain: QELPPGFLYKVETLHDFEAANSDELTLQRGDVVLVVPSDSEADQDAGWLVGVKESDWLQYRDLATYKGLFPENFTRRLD
The test can be described thus: SPOT array.
Consider ETSMLKRPVLLHLH [Q9UHE8 34-47], for which the normalised SPOT signal, Boehringer light units (BLU); mean over the file's lines of this peptide was found to be 79.9.
EPEEPKRPVPAERG [Q16584 619-632]: the normalised SPOT signal, Boehringer light units (BLU); mean over the file's lines of this peptide was 104.
Still for that read-out and setting: then ESPPPKRPRIAYLS [P36508 395-408], with 39.3; and EPPPPQKPPPPNSK [Q03111 455-469], with 44.4; and ENDNIERPVRRRHS [Q9NR92 11-24], with 88.7.
Still for that read-out and setting: then EREFLERPSRDHLY [Q12968 137-150], with 334; and EQPPPGRPPLRLED [Q9Y334 62-76], with 33.6; and ESRDITRPSRPADL [Q9Y6Z1 10-23], with 192.
Same read-out and setting: then EQGGLLRPERDHVE [Q9ULV5 88-101], with 79.3; and EQRPLKRPRLGPPD [Q96PC8 10-23], with 31.
AGPRPRRPGSLPGW [Q14333 377-390] yielded a normalised SPOT signal, Boehringer light units (BLU); mean over the file's lines of this peptide of 203.
Still for that read-out and setting: then EQGSLKRPVSRKVG [O15021 1020-1033], with 47.3.
Same read-out and setting: then ESQSPKRPPEDFET [Q16632 163-177], with 42; and ESPLPRRPPRAARS [P81408 388-402], with 23200.
Consider ESSGPPRPSRGPAA [Q9UHD9 6-19], for which the normalised SPOT signal, Boehringer light units (BLU); mean over the file's lines of this peptide came to 2690.
The molecule EQFKIKRPAAWVDL [O43301 404-417] had a normalised SPOT signal, Boehringer light units (BLU); mean over the file's lines of this peptide of 4.3.
The same measure, in the same setting: then ETSMLKRPVLLHLQ [Q9Y6U5 44-57], with 16.4.
Same read-out and setting: then EQKRPLRPRRKGRK [Q9P2K1 987-1000], with 11900.
The same measure, in the same setting: then ERDFLKRPLESYVK [Q10472 159-172], with 42.3.
Consider AGPRLPRPPREGST [Q9H224 58-71], for which the normalised SPOT signal, Boehringer light units (BLU); mean over the file's lines of this peptide turned out to be 2230.
Same read-out and setting: then ETNIPQRPSRPARR [Q9HBL3 239-252], with 20700; and ESRDITRPSRPASY [O60298 756-769], with 539; and EPGLPVRPPGGGQS [O95954 457-471], with 374.
Still for that read-out and setting: then EQYIPSRPLKTQEL [Q9Y259 145-158], with 32.2; and AGSDPKRPEMPSKK [P23470 686-699], with 23.2.
Still for that read-out and setting: then AGSSPGKPPRLVGG [P01034 24-38], with 272; and ESSRPVKPPKKDVP [O60885 322-336], with 52.8; and EPPAPRRPASLAQR [Q9NP57 254-267], with 37.1.
ENESPLKPPGISMD [Q92610 35-49] gave a normalised SPOT signal, Boehringer light units (BLU); mean over the file's lines of this peptide of 50.4.
For ETLTFKRPEGMHRE [Q9NPF5 43-56], the normalised SPOT signal, Boehringer light units (BLU); mean over the file's lines of this peptide stood at 29.5.
Turning to ETMYLRRPEGIERQ [Q9H5V9 75-88], the normalised SPOT signal, Boehringer light units (BLU); mean over the file's lines of this peptide was 20.5.
Still for that read-out and setting: then EREALKRPMGPVHY [Q9P0R4 128-141], with 11.6; and EQVDLIRPWRRLLE [Q9NU22 852-865], with 131; and ETGALRRPQLLPLL [O60896 2-15], with 39.4.
ETSGPERPPEKPRK [O75408 12-26]: the normalised SPOT signal, Boehringer light units (BLU); mean over the file's lines of this peptide worked out at 38.5.
Consider ETISPLRPQRPKSQ [Q14185 1731-1744], for which the normalised SPOT signal, Boehringer light units (BLU); mean over the file's lines of this peptide amounted to 4090.
Molecule ERPPPFKPPPPPIK [P40200 535-549] came in with a normalised SPOT signal, Boehringer light units (BLU); mean over the file's lines of this peptide of 92.2.
On the same count and under the same terms, then ESGRPIKPPRKDLP [P25440 318-332], with 8960.

The values are drawn from publication PMC314469, “Protein Interaction Networks by Proteome Peptide Scanning” (PLoS Biology, 2004).
